According to patent US20220313831A1 (BAYLOR COLLEGE OF MEDICINE, published 2022):

Target: T1, CD6 (basal, native) on non-transduced T cells (human, UniProt P30203 18-668)
T1 construct: whole, on cells; also called basal CD6 expression on normal T cells
T1 sequence (looked up): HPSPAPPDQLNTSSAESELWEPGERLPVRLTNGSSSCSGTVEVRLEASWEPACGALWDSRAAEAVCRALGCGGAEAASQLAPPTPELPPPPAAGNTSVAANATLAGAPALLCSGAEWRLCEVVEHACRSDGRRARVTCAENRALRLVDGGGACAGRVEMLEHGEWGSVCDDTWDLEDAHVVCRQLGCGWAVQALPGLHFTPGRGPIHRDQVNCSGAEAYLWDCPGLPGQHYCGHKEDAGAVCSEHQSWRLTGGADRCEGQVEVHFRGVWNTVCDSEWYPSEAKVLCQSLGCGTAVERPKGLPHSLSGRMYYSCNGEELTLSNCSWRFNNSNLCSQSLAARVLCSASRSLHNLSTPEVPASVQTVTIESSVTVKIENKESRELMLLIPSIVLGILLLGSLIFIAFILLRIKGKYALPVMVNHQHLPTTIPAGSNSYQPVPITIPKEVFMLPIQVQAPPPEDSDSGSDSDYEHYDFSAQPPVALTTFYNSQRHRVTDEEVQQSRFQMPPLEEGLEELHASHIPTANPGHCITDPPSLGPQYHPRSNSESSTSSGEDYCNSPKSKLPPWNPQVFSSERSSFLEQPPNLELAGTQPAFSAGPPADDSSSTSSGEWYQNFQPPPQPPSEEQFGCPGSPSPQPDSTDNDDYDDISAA
Assay: flow cytometry; non-transduced T cells stained with ALCAM-Fc and anti-human IgG1 Fc FITC
Protocol: A) FACS analysis was used to confirm ALCAM specific binding to MBE CD6 D3 constructs on the surface of primary T cells. Cells were incubated with IgG1 Fc linked recombinant human ALCAM followed by an anti-human IgG1 Fc FITC conjugated Ab (filled black histogram). Staining of cells with anti-human IgG1 Fc FITC alone (open grey histogram), staining of non-transduced T cells (NT) (dotted open histogram) served as control for basal CD6 expression on normal T cells which bind natively to ALCAM.Fc. and percentage transduction is determined after staining of monomer, monomer+signaling domain, trimer, trimer+signaling domain, pentamer and pentamer+signaling domain (grey-filled histogram) (FIG. 6).

B1: IgG1 Fc linked recombinant human ALCAM (Fc fusion, UniProt Q13740 28-527, looked up)
chain: WYTVNSAYGDTIIIPCRLDVPQNLMFGKWKYEKPDGSPVFIAFRSSTKKSVQYDDVPEYKDRLNLSENYTLSISNARISDEKRFVCMLVTEDNVFEAPTIVKVFKQPSKPEIVSKALFLETEQLKKLGDCISEDSYPDGNITWYRNGKVLHPLEGAVVIIFKKEMDPVTQLYTMTSTLEYKTTKADIQMPFTCSVTYYGPSGQKTIHSEQAVFDIYYPTEQVTIQVLPPKNAIKEGDNITLKCLGNGNPPPEEFLFYLPGQPEGIRSSNTYTLTDVRRNATGDYKCSLIDKKSMIASTAITVHYLDLSLNPSGEVTRQIGDALPVSCTISASRNATVVWMKDNIRLRSSPSFSSLHYQDAGNYVCETALQEVEGLKKRESLTLIVEGKPQIKMTKKTDPSGLSKTIICHVEGFPKPAIQWTITGSGSVINQTEESPYINGRYYSKIIISPEENVTLTCTAENQLERTVNSLNVSAISIPEHDEADEISDENREKVNDQAK
notes: also called ALCAM-fc; ALCAM-Fc; not shown: IgG1 Fc (detected with anti-human IgG1 Fc antibody)
binding result: binds
